# Test: soluble on expression in E. coli; label from the status in PepcDB or PDB records
row,Sequence,soluble on expression in E. coli
1,MSLHGNSEMQKINQTSAMPEKTDVHWSGRFSVAPMLDWTDRHCRYFLRLLSRNTLLYTEMVTTGAIIHGKGDYLAYSEEEHPVALQLGGSDPAALAQCAKLAEARGYDEINLNVGCPSDRVQNGMFGACLMGNAQLVADCVKAMRDVVSIPVTVKTRIGIDDQDSYEFLCDFINTVSGKGECEMFIIHARKAWLSGLSPKENREIPPLDYPRVYQLKRDFPHLTMSINGGIKSLEEAKAHLQHMDGVMVGREAYQNPGILAAVDREIFGSSDTDADPVAVVRAMYPYIERELSQGTYLGHITRHMLGLFQGIPGARQWRRYLSENAHKAGADINVLEHALKLVADKREGHHHHHH,soluble
2,MGSDKIHHHHHHMRRKDATWILTAQCPSRLGTVDVVTRFLKECRCYITEQQSFDDRHGERFFIRTAFQPEETDFDADTFQAAFAARAAEFDMVFELTAPEARMPVVIMVSKADHCLNDLLYRYRTGQLPVTIRAVISNHPDLEPLVAWHDLPYYHLPITPETKAEQEAEVWRVIESTGAELVILARYMQVLSSELCEKLTGKAINIHHSLLPGFKGAKPYHQAFEKGVKLVGATAHYINDDLDEGPIITQGVEPVSHADDPEDLVAKGRDIECLTLARAVSLHLERRVFLHARRTVVFAR,not soluble
3,MSLNSEWGKFALWLKHQRISPAELLVPQPQEKLTGWSDPRISQERILGLLARGHSLALAVDKWQRAGLWILTRGDADYPVRLKNRLRTDAPPVLFGCGNKALLQAEGMAIVGSRDAPTDDLRYTQQLAAKLAQQGICVISGGARGIDECAMASALEAGGTAVGVLADSLLKTSTLVKWREGLIAGNLVLISPFYPEVRFTVGNAMARNKYIYCLAESAMVVRAGMTGGTITGAMEALKHQWLPVQVKPNQDMQSANSRLVENGASWSAEQAENVTIRLPDVPGLMYDRAEGHHHHHH,soluble
4,MTDESDSTAHVSCIIPVYNDSVGIKNTLRSVVGQEYHGYDVYVVDNGSTDGSRRRVRNCAAESDDIQLLVEDEVQGSYAARKTGVQNAESDVLAFLDADETVDEDWLETALGAMQEQDVDYLGCNVELTCPEDTLVGRYNARTGFPVEEYLEDQNYAPTCALLVRRKVFEDVGPFDARLISGGDREFGDRVHDAGYEQGYAENATVYHPARTSLESLAKKNFRVGRGFCQKQRYYPERYGKPGIPPTPSGPSGGDDGDEPDASLTRLAFTLLSIAMLACRGVGYYYEFVVGEENDDIPAPTSLEHHHHHH,not soluble
5,MAHHHHHHMESINRNNNINKNEIDNKINNNNNMDVPIEGNEKSQEGDIIGQFGVGFYSSFVVSNKVEVFTRSYDNNSSKGYHWVSYGNGTFTLKEVDNIPKGTKIICHLKDSCKEFSNIQNVQKIVEKFSSFINFPVYVLKKKKILQT,soluble
6,MGSDKIHHHHHHMADFQGETEMTAEVFDPRALRDAFGAFATGVTVVTASDAAGKPIGFTANSFTSVSLDPPLLLVCLAKSSRNYESMTSAGRFAINVLSETQKDVSNTFARPVEDRFAAVDWRLGRDGCPIFSDVAAWFECSMQDIIEAGDHVIIIGRVTAFENSGLNGLGYARGGYFTPRLAGKAVSAAVEGEIRLGAVLEQQGAVFLAGNETLSLPNCTVEGGDPARTLAAYLEQLTGLNVTIGFLYSVYEDKSDGRQNIVYHALASDGAPRQGRFLRPAELAAAKFSSSATADIINRFVLESSIGNFGIYFGDETGGTVHPIANKDAHS,not soluble
7,MGSDKIHHHHHHMKKVLGGLLVATAVVSLAACSGGEKKASSDVSIKDRYELDEKTPAWKLDKKKEPTKIKWYINSDWTALPFGKDVTTAQIKKDLNVDIEFISGDDSKLNAMISSGDMPDIVTLTEKTGQAALKADSWAYSLNDLAKKYDPYLMKVVNQDTFKWYALEDGKTYGYPNYSNTKADYESGNIPVNDNFVIREDVYNALGKPDVSTPENFEKVMQQIKEKYPEMTPMGFTTVGDGAGPFLDKLQDFLGVPLEDKNGKYYDRNLDKEYLEWLKTFNDVYRAGNISDDSFTDDGATFDEKVKQGNYATMLVAGTSGQGGNFTEFMKKSGTRYIAIDGPSSTSGRKPTLNQTGISGWLSNYITKDAKDPAKVTQLFTYLIDEPGQILTKYGVEGVTYAYNDQGKIDYLPEVKKLEQTDNDAYNKKYGISRFLYFNNDRVNKLKVPMESALTQMQEWGKGKLVPHFVIENINPDAGTPEARANEAIETKLNTTVISMIRAKDDKAFDKSLEDYKAFLKSNKWDAIEKIKSEKMAENRDKLK,not soluble
8,MGSDKIHHHHHHMTLDNPVANKFSIAASQYKQHDVLQRITAKQLLDNAPLFGTLLDVGAGPGTSFNAFNDVEQVVAVDIAHGMLNQLTKQYPDYLPICSDAQALGLQSASIDSIYSNLALQWCQNLPEAFAEFHRVLRQNGECYLSVVVDGSLAELKTLGFRVNQFNSVSAIKAAFIASQDSPNDWLNIDIQVKSISVYFDDLRSLLYSIKGVGASFAQQGENNATHHHPLTKQQWQQRIALAETMRTDKGIPLTYQIAYIRAKRG,not soluble
9,GSNSLMERIHEQIKKGELALFYLQEQINHFEEKPTKEMKDKIVAEMDTIIAMIDGVRGVLDRLMQRKDLDIFEQYNLEMAKKSGDILERDLKKEEARVKKIEV,soluble
10,MGSDKIHHHHHHMNEFIASIKSATASLHTQLEQSEISNVIMSQLVTEKAYAEYLSRIQCMHEDIEKHTFPIIHTIIKDTAQRTKSTAIAADLDQLKYASAVNKTFLDAAHSPDLNFNLGLMYVTEGSVLGGQVILKNIKKQLGEDIASRFLNVYGQQTGHLWRSFLIQLSEYQSTLSEKEKMTIIDGAKYGFERVYSILM,not soluble
11,MKLKDCVMIKKIFALPVIEQISPVLSRRKLDELDLIVVDHPQVKASFALQGAHLLSWKPAGEEEVLWLSNNTPFKNGVAIRGGVPVCWPWFGPAAQQGLPAHGFARNLPWTLKSHHEDADGVALTFELTQSEETKKFWPHDFTLLAHFRVGKTCEIDLESHGEFETTSALHTYFNVGDIAKVSVSGLGDRFIDKVNDAKENVLTDGIQTFPDRTDRVYLNPQDCSVINDEALNRIIAVGHQHHLNVVGWNPGPALSISMGDMPDDGYKTFVCVETAYASETQKVTKEKPAHLAQSIRVAKRLEHHHHHH,not soluble

# From the DeepSol protein solubility set
